In US20260258127A1 (YING MAI DE MEDICAL TECHNOLOGY GUANGDONG, published 2026):

Biological target: T1, CD3 (antigen of the anti-CD3 antibody, coated in the ELISA of Examples 1-3) (Homo sapiens (Human), UniProt P07766 23-126)
T1 construct: also called antibody antigen
Assay: binding activity after activation of the conjugate; method not described

T1 sequence (P07766 23-126 limits assumed, form in doubt): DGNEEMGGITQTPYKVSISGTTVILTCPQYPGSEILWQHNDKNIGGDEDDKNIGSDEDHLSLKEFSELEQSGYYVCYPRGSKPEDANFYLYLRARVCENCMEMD

Binder | Recovery of binding force after activation (%)
CD3 antibody VH-Y61C PEG10K conjugate after activation (Table 3) (antibody, V domains shown, Cys 61: PEG10K blocker released by activation (cleavage of the linker peptide); what remains on Cys 61 is not stated) VH: EVQLVESGGGLVQPGGSLRLSCAASGFTFSTYAMNWVRQAPGKGLEWVGRIRSKYNNYATCYADSVKDRFTISRDDSKNSLYLQMNSLKTEDTAVYYCARHGNFGNSYVSWFAYWGQGTLVTVSS VL: QTVVTQEPSLTVSPGGTVTLTCRSSTGAVTTSNYANWVQQKPGQAPRGLIGGTNKRAPGVPARFSGSLLGDKAALTLLGAQPEDEAEYFCALWYSNLWVFGGGTKLTVL | 100
CD3 antibody VH-Y61C PEG20K conjugate after activation (Table 3) (antibody, V domains shown, Cys 61: PEG20K blocker released by activation (cleavage of the linker peptide); what remains on Cys 61 is not stated) VH: EVQLVESGGGLVQPGGSLRLSCAASGFTFSTYAMNWVRQAPGKGLEWVGRIRSKYNNYATCYADSVKDRFTISRDDSKNSLYLQMNSLKTEDTAVYYCARHGNFGNSYVSWFAYWGQGTLVTVSS VL: QTVVTQEPSLTVSPGGTVTLTCRSSTGAVTTSNYANWVQQKPGQAPRGLIGGTNKRAPGVPARFSGSLLGDKAALTLLGAQPEDEAEYFCALWYSNLWVFGGGTKLTVL | 100
CD3 antibody VH-Y61C PEG5K conjugate after activation (Table 3) (antibody, V domains shown, Cys 61: PEG5K blocker released by activation (cleavage of the linker peptide); what remains on Cys 61 is not stated) VH: EVQLVESGGGLVQPGGSLRLSCAASGFTFSTYAMNWVRQAPGKGLEWVGRIRSKYNNYATCYADSVKDRFTISRDDSKNSLYLQMNSLKTEDTAVYYCARHGNFGNSYVSWFAYWGQGTLVTVSS VL: QTVVTQEPSLTVSPGGTVTLTCRSSTGAVTTSNYANWVQQKPGQAPRGLIGGTNKRAPGVPARFSGSLLGDKAALTLLGAQPEDEAEYFCALWYSNLWVFGGGTKLTVL | 100
CD3 antibody VH-Y61C PEG40K conjugate after activation (Table 3) (antibody, V domains shown, Cys 61: PEG40K blocker released by activation (cleavage of the linker peptide); what remains on Cys 61 is not stated) VH: EVQLVESGGGLVQPGGSLRLSCAASGFTFSTYAMNWVRQAPGKGLEWVGRIRSKYNNYATCYADSVKDRFTISRDDSKNSLYLQMNSLKTEDTAVYYCARHGNFGNSYVSWFAYWGQGTLVTVSS VL: QTVVTQEPSLTVSPGGTVTLTCRSSTGAVTTSNYANWVQQKPGQAPRGLIGGTNKRAPGVPARFSGSLLGDKAALTLLGAQPEDEAEYFCALWYSNLWVFGGGTKLTVL | 100

Biological target: T1, CD3 (antigen of the anti-CD3 antibody, …)
Assay: binding activity after conjugation with different R1; method not described (presumably ELISA)

Binder | Blocking fold after conjugation [fold]
CD3 antibody VH-Y61C conjugated through the cleavable linker peptide with R1 = PEG5K (Table 3) (antibody, V domains shown, Cys 61 conjugated with cleavable linker peptide P carrying blocker PEG5K, also called VH-61 Y61C PEG5K) VH: EVQLVESGGGLVQPGGSLRLSCAASGFTFSTYAMNWVRQAPGKGLEWVGRIRSKYNNYATCYADSVKDRFTISRDDSKNSLYLQMNSLKTEDTAVYYCARHGNFGNSYVSWFAYWGQGTLVTVSS VL: QTVVTQEPSLTVSPGGTVTLTCRSSTGAVTTSNYANWVQQKPGQAPRGLIGGTNKRAPGVPARFSGSLLGDKAALTLLGAQPEDEAEYFCALWYSNLWVFGGGTKLTVL | 10
CD3 antibody VH-Y61C conjugated through the cleavable linker peptide with R1 = PEG10K (Table 3) (antibody, V domains shown, Cys 61 conjugated with cleavable linker peptide P carrying blocker PEG10K, also called VH-61 Y61C PEG10K) VH: EVQLVESGGGLVQPGGSLRLSCAASGFTFSTYAMNWVRQAPGKGLEWVGRIRSKYNNYATCYADSVKDRFTISRDDSKNSLYLQMNSLKTEDTAVYYCARHGNFGNSYVSWFAYWGQGTLVTVSS VL: QTVVTQEPSLTVSPGGTVTLTCRSSTGAVTTSNYANWVQQKPGQAPRGLIGGTNKRAPGVPARFSGSLLGDKAALTLLGAQPEDEAEYFCALWYSNLWVFGGGTKLTVL | 20
CD3 antibody VH-Y61C conjugated through the cleavable linker peptide with R1 = PEG40K (Table 3) (antibody, V domains shown, Cys 61 conjugated with cleavable linker peptide P carrying blocker PEG40K, also called VH-61 Y61C PEG40K) VH: EVQLVESGGGLVQPGGSLRLSCAASGFTFSTYAMNWVRQAPGKGLEWVGRIRSKYNNYATCYADSVKDRFTISRDDSKNSLYLQMNSLKTEDTAVYYCARHGNFGNSYVSWFAYWGQGTLVTVSS VL: QTVVTQEPSLTVSPGGTVTLTCRSSTGAVTTSNYANWVQQKPGQAPRGLIGGTNKRAPGVPARFSGSLLGDKAALTLLGAQPEDEAEYFCALWYSNLWVFGGGTKLTVL | 500
CD3 antibody VH-Y61C conjugated through the cleavable linker peptide with R1 = PEG20K (Table 3) (antibody, V domains shown, Cys 61 conjugated with cleavable linker peptide P carrying blocker PEG20K, may be the same molecule as m19 (same value 400) or as CD3-Her2+20k; also called VH-61 Y61C PEG20K) VH: EVQLVESGGGLVQPGGSLRLSCAASGFTFSTYAMNWVRQAPGKGLEWVGRIRSKYNNYATCYADSVKDRFTISRDDSKNSLYLQMNSLKTEDTAVYYCARHGNFGNSYVSWFAYWGQGTLVTVSS VL: QTVVTQEPSLTVSPGGTVTLTCRSSTGAVTTSNYANWVQQKPGQAPRGLIGGTNKRAPGVPARFSGSLLGDKAALTLLGAQPEDEAEYFCALWYSNLWVFGGGTKLTVL | 400

Biological target: T1, CD3 (antigen of the anti-CD3 antibody, …)
Assay: binding activity of the conjugated mutant compared with the wild-type antibody (ELISA as in Example 1)
Procedure: In the present invention, the activity of each mutant with a point mutation compared to that of its initial antibody is detected by ELISA. Specifically, the 96-well plates were coated with antibody antigen overnight, then blocked with 1% BSA blocking agent (Thermo Fisher) at 37° C. for 2 hours, and washed with PBST for 3 times. The corresponding antibody or the corresponding mutant was added for binding at 37° C. for 1 hour, and then washed with PBST for 3 times. HRP enzyme-linked anti-human IgG was added for binding at 37° C. for 1 hour, and washed with PBST for 3 times. TMB substrate (Solarbio., Inc.) was used to detect absorbance at 450 nm. The effect on mutant binding strength was calculated through EC50 mutation/EC50 wild-type.

Binder | Blocking fold after conjugation (+20K) [fold]
anti-CD3 antibody mutant VH-W111C conjugated with Molecule I (+20K) (antibody, V domains shown, Cys 111 conjugated with Molecule I (+20K), also called VH-111 W111 (+20K)) VH: EVQLVESGGGLVQPGGSLRLSCAASGFTFSTYAMNWVRQAPGKGLEWVGRIRSKYNNYATYYADSVKDRFTISRDDSKNSLYLQMNSLKTEDTAVYYCARHGNFGNSYVSCFAYWGQGTLVTVSS VL: QTVVTQEPSLTVSPGGTVTLTCRSSTGAVTTSNYANWVQQKPGQAPRGLIGGTNKRAPGVPARFSGSLLGDKAALTLLGAQPEDEAEYFCALWYSNLWVFGGGTKLTVL | 6
anti-CD3 antibody mutant VH-Y61C conjugated with Molecule I (+20K) (antibody, V domains shown, Cys 61 conjugated with Molecule I (+20K), also called VH-61 Y61 (+20K)) VH: EVQLVESGGGLVQPGGSLRLSCAASGFTFSTYAMNWVRQAPGKGLEWVGRIRSKYNNYATCYADSVKDRFTISRDDSKNSLYLQMNSLKTEDTAVYYCARHGNFGNSYVSWFAYWGQGTLVTVSS VL: QTVVTQEPSLTVSPGGTVTLTCRSSTGAVTTSNYANWVQQKPGQAPRGLIGGTNKRAPGVPARFSGSLLGDKAALTLLGAQPEDEAEYFCALWYSNLWVFGGGTKLTVL | 400
anti-CD3 antibody mutant VL-W93C conjugated with Molecule I (+20K) (antibody, V domains shown, Cys 93 conjugated with Molecule I (+20K), also called VL-93 W93 (+20K)) VH: EVQLVESGGGLVQPGGSLRLSCAASGFTFSTYAMNWVRQAPGKGLEWVGRIRSKYNNYATYYADSVKDRFTISRDDSKNSLYLQMNSLKTEDTAVYYCARHGNFGNSYVSWFAYWGQGTLVTVSS VL: QTVVTQEPSLTVSPGGTVTLTCRSSTGAVTTSNYANWVQQKPGQAPRGLIGGTNKRAPGVPARFSGSLLGDKAALTLLGAQPEDEAEYFCALCYSNLWVFGGGTKLTVL | 5
anti-CD3 antibody mutant VL-N96C conjugated with Molecule I (+20K) (antibody, V domains shown, Cys 96 conjugated with Molecule I (+20K), also called VL-96 N96 (+20K)) VH: EVQLVESGGGLVQPGGSLRLSCAASGFTFSTYAMNWVRQAPGKGLEWVGRIRSKYNNYATYYADSVKDRFTISRDDSKNSLYLQMNSLKTEDTAVYYCARHGNFGNSYVSWFAYWGQGTLVTVSS VL: QTVVTQEPSLTVSPGGTVTLTCRSSTGAVTTSNYANWVQQKPGQAPRGLIGGTNKRAPGVPARFSGSLLGDKAALTLLGAQPEDEAEYFCALWYSCLWVFGGGTKLTVL | 2
anti-CD3 antibody mutant VL-Y34C conjugated with Molecule I (+20K) (antibody, V domains shown, Cys 34 conjugated with Molecule I (+20K), also called VL-34 Y34 (+20K)) VH: EVQLVESGGGLVQPGGSLRLSCAASGFTFSTYAMNWVRQAPGKGLEWVGRIRSKYNNYATYYADSVKDRFTISRDDSKNSLYLQMNSLKTEDTAVYYCARHGNFGNSYVSWFAYWGQGTLVTVSS VL: QTVVTQEPSLTVSPGGTVTLTCRSSTGAVTTSNCANWVQQKPGQAPRGLIGGTNKRAPGVPARFSGSLLGDKAALTLLGAQPEDEAEYFCALWYSNLWVFGGGTKLTVL | 8
anti-CD3 antibody mutant VL-N54C conjugated with Molecule I (+20K) (antibody, V domains shown, Cys 54 conjugated with Molecule I (+20K), also called VL-54 N54 (+20K)) VH: EVQLVESGGGLVQPGGSLRLSCAASGFTFSTYAMNWVRQAPGKGLEWVGRIRSKYNNYATYYADSVKDRFTISRDDSKNSLYLQMNSLKTEDTAVYYCARHGNFGNSYVSWFAYWGQGTLVTVSS VL: QTVVTQEPSLTVSPGGTVTLTCRSSTGAVTTSNYANWVQQKPGQAPRGLIGGTCKRAPGVPARFSGSLLGDKAALTLLGAQPEDEAEYFCALWYSNLWVFGGGTKLTVL | 12
anti-CD3 antibody mutant VL-R56C conjugated with Molecule I (+20K) (antibody, V domains shown, Cys 56 conjugated with Molecule I (+20K), also called VL-56 R56 (+20K)) VH: EVQLVESGGGLVQPGGSLRLSCAASGFTFSTYAMNWVRQAPGKGLEWVGRIRSKYNNYATYYADSVKDRFTISRDDSKNSLYLQMNSLKTEDTAVYYCARHGNFGNSYVSWFAYWGQGTLVTVSS VL: QTVVTQEPSLTVSPGGTVTLTCRSSTGAVTTSNYANWVQQKPGQAPRGLIGGTNKCAPGVPARFSGSLLGDKAALTLLGAQPEDEAEYFCALWYSNLWVFGGGTKLTVL | 6
anti-CD3 antibody mutant VL-K55C conjugated with Molecule I (+20K) (antibody, V domains shown, Cys 55 conjugated with Molecule I (+20K), also called VL-55 K55 (+20K)) VH: EVQLVESGGGLVQPGGSLRLSCAASGFTFSTYAMNWVRQAPGKGLEWVGRIRSKYNNYATYYADSVKDRFTISRDDSKNSLYLQMNSLKTEDTAVYYCARHGNFGNSYVSWFAYWGQGTLVTVSS VL: QTVVTQEPSLTVSPGGTVTLTCRSSTGAVTTSNYANWVQQKPGQAPRGLIGGTNCRAPGVPARFSGSLLGDKAALTLLGAQPEDEAEYFCALWYSNLWVFGGGTKLTVL | 5
anti-CD3 antibody mutant VL-Y94C conjugated with Molecule I (+20K) (antibody, V domains shown, Cys 94 conjugated with Molecule I (+20K), also called VL-94 Y94 (+20K)) VH: EVQLVESGGGLVQPGGSLRLSCAASGFTFSTYAMNWVRQAPGKGLEWVGRIRSKYNNYATYYADSVKDRFTISRDDSKNSLYLQMNSLKTEDTAVYYCARHGNFGNSYVSWFAYWGQGTLVTVSS VL: QTVVTQEPSLTVSPGGTVTLTCRSSTGAVTTSNYANWVQQKPGQAPRGLIGGTNKRAPGVPARFSGSLLGDKAALTLLGAQPEDEAEYFCALWCSNLWVFGGGTKLTVL | 30
